34 variants from the Human Domainome abundance scans (Beltran et al. 2025) can be followed below.

± gives the uncertainty stated by the source.

B1: Friend leukemia integration 1 transcription factor, residues 116 to 197; numbered along this chain, Q01543 (parent)
chain: NMTTNERRVIVPADPTLWTQEHVRQWLEWAIKEYSLMEIDTSFFQNMDGKELCKMNKEDFLRATTLYNTEVLLSHLSYLRES

Variants of B1 are the subject of this data set. In words: abundance fitness (aPCA) (normalised: wild type 0, dead -1); higher = more abundant; growth selection in yeast, the domain comes from the species named. The settings on record: Homo sapiens.
As for NMTTNERRVIVPADPTLWTQEHVRQWLEWAIKEYSLMEIDTSFFQNMDGKELCKMNKEDFLRATTLYNTEVLFSHLSYLRES [L73F], the abundance fitness was -0.1 ± 0.1. Regarding NMTTNERRVIVPADPTLWTKEHVRQWLEWAIKEYSLMEIDTSFFQNMDGKELCKMNKEDFLRATTLYNTEVLLSHLSYLRES [Q20K], the abundance fitness was found to be 0.138 ± 0.19. In the case of NMTTNERRVIVPADPTLWTDEHVRQWLEWAIKEYSLMEIDTSFFQNMDGKELCKMNKEDFLRATTLYNTEVLLSHLSYLRES [Q20D] it was -0.054 ± 0.18; in that of NMTTNERRVIVPADPTLWTQEHVRQWLEWAIKEYSLMEIDTSFFQNMDGKELCKMNKEHFLRATTLYNTEVLLSHLSYLRES [D59H], -0.177 ± 0.23; in that of NMTTNERRVIVPADPTLWTQEHVRQWLEWAIKEYSLMEIDTSFFQNMDGKELCSMNKEDFLRATTLYNTEVLLSHLSYLRES [K54S], -0.01 ± 0.07. In the case of NMTTNERRVIVPADPTLWTQEHVRQWLEWAIKEYSLMEIDTSFFQNMDGKELCKMNKEDFLFATTLYNTEVLLSHLSYLRES [R62F] it was -0.327 ± 0.2. As to NMTTNERRVIVPADPTLWTQEHVRQWLEWAIKEYSLMEIDTSFFQNMDGKELCKMNKEDFLKATTLYNTEVLLSHLSYLRES [R62K], the abundance fitness stood at 0.087 ± 0.15. As to NMTTNERRVIVPADPTLWTQEHVRQWLEWAIKEYSLMEIDTAFFQNMDGKELCKMNKEDFLRATTLYNTEVLLSHLSYLRES [S42A], the abundance fitness was -0.037 ± 0.063. Turning to NMTTNERRVIVPADPTLWTQEHVRQWLEWDIKEYSLMEIDTSFFQNMDGKELCKMNKEDFLRATTLYNTEVLLSHLSYLRES [A30D], the abundance fitness is -0.709 ± 0.18. With NMTTNERRVIVPADPTLWTQEHVRQWLEWAIKEYSLMEIDTSFFDNMDGKELCKMNKEDFLRATTLYNTEVLLSHLSYLRES [Q45D], the abundance fitness is -0.295 ± 0.18.

Regarding NMTTNERRVIVPADPTLWTQEHVRQWLEWAIKEYSLMEIDTSFFVNMDGKELCKMNKEDFLRATTLYNTEVLLSHLSYLRES [Q45V], the abundance fitness was 0.062 ± 0.057. As to NMTTNERRVIVPADPTLWTQEHVRQWLEWAIKEYSLMEIDTSFFQNMDGKELCKMNKEDFLRRTTLYNTEVLLSHLSYLRES [A63R], the abundance fitness is -0.041 ± 0.048. As to NMTTNERRVIVPADPTLWTQEHVRQWLEWAIKEYSLMEIDTSFFQNMDGKELCKMNKEDFLRATTLYQTEVLLSHLSYLRES [N68Q], the abundance fitness was -0.167 ± 0.089.

For the variant NMTTNERRVIVPADPTLWTQEHVRQWLEWAIKEYSLMEIDTSFFQNMDGKELCKMNKEDFLRATTLYDTEVLLSHLSYLRES [N68D], the abundance fitness amounted to 0.156 ± 0.25. In the case of NMTTNERRVIVPADPTLWTQEHVRQWLEWAIKEYSLMEIDTSFFQNMDVKELCKMNKEDFLRATTLYNTEVLLSHLSYLRES [G49V] it was -0.755 ± 0.14. Next, NMTTNERRVIVPADPTLWTQEHVRQWLEWAIKEYSLMEIDTSFFQNMDGKELCKMNKEDFLRATTLYNTEVLLSHLSYLREP [S82P]: -0.125 ± 0.46; NMTTNERRVIVPADPTLWTQEHVRQWLEWAIKEYSLMEIDTSFFQNMDGKYLCKMNKEDFLRATTLYNTEVLLSHLSYLRES [E51Y]: -0.679 ± 0.33; NMTTNERRVIVPADPTLWTQEHVRFWLEWAIKEYSLMEIDTSFFQNMDGKELCKMNKEDFLRATTLYNTEVLLSHLSYLRES [Q25F]: -0.106 ± 0.19. Take NMTTNERRVIVPADPTLWTQEHVRQWLEWAIKEYSLMEIDTSFFQNMDGKELCKQNKEDFLRATTLYNTEVLLSHLSYLRES [M55Q]: the abundance fitness was -0.158 ± 0.099. In the case of NMTTNERRVIVPADPTLWTQEHVRQWLEWAIKEYSLMEIVTSFFQNMDGKELCKMNKEDFLRATTLYNTEVLLSHLSYLRES [D40V], the abundance fitness is -0.892 ± 0.16.

Regarding NMTTNERTVIVPADPTLWTQEHVRQWLEWAIKEYSLMEIDTSFFQNMDGKELCKMNKEDFLRATTLYNTEVLLSHLSYLRES [R8T], the abundance fitness is -0.236 ± 0.14. Turning to NMTTNERRVIVPADPTLWTQEHVRQWLEWAIKEYSLMEIDTSFFQNMDGKELCKMNKEDKLRATTLYNTEVLLSHLSYLRES [F60K], the abundance fitness is -0.801 ± 0.22.

With NMTTNERRVIVCADPTLWTQEHVRQWLEWAIKEYSLMEIDTSFFQNMDGKELCKMNKEDFLRATTLYNTEVLLSHLSYLRES [P12C], the abundance fitness is -0.178 ± 0.15. In the case of NMTTNERRVIVEADPTLWTQEHVRQWLEWAIKEYSLMEIDTSFFQNMDGKELCKMNKEDFLRATTLYNTEVLLSHLSYLRES [P12E] it was 0.12 ± 0.15. For NMTTNERRVIVPADPTLWTQEHVRQWLEGAIKEYSLMEIDTSFFQNMDGKELCKMNKEDFLRATTLYNTEVLLSHLSYLRES [W29G], the abundance fitness is 0.168 ± 0.052. In the case of NMTTNERRVIVPADPTLWTQEHVRQWLEWAIREYSLMEIDTSFFQNMDGKELCKMNKEDFLRATTLYNTEVLLSHLSYLRES [K32R], the abundance fitness is -0.052 ± 0.043. Next, NMTTNERRVIVPADPTLWTQEHVRQWLEWAIKEYSLMEIDTSFFQNMDGKELCKMNKEDFLRATTLANTEVLLSHLSYLRES [Y67A]: -0.051 ± 0.087.

For NMTTNERRVIVPADPTLWTQEHVRQWLEWAIKEYSLMEVDTSFFQNMDGKELCKMNKEDFLRATTLYNTEVLLSHLSYLRES [I39V], the abundance fitness turned out to be 0.019 ± 0.072.

Turning to NMTTNERRVIVPADPTLWTQEHVRQWLEWAIKEPSLMEIDTSFFQNMDGKELCKMNKEDFLRATTLYNTEVLLSHLSYLRES [Y34P], the abundance fitness was -0.897 ± 0.28.

On to NMTTNERRVIVPADPTLWTQEHVRQWLEWAIKEYSLMEIDTSFFQNMDGKELCKMNKEDFLRATKLYNTEVLLSHLSYLRES [T65K], for which the abundance fitness is -0.47 ± 0.13. Next, NMTTNERRVIVPADWTLWTQEHVRQWLEWAIKEYSLMEIDTSFFQNMDGKELCKMNKEDFLRATTLYNTEVLLSHLSYLRES [P15W]: -0.942 ± 0.16. Regarding NMTTNERRVIVPADHTLWTQEHVRQWLEWAIKEYSLMEIDTSFFQNMDGKELCKMNKEDFLRATTLYNTEVLLSHLSYLRES [P15H], the abundance fitness is -0.892 ± 0.28. For NMTTRERRVIVPADPTLWTQEHVRQWLEWAIKEYSLMEIDTSFFQNMDGKELCKMNKEDFLRATTLYNTEVLLSHLSYLRES [N5R], the abundance fitness is -0.042 ± 0.054. In the case of NMTTNERRVIVPADPTLWTQEHVRQWLEWAIKEYSLMEIDTSFFQNMDGKELCKMNKEDFLRATTLYNTEVKLSHLSYLRES [L72K], the abundance fitness is -1 ± 0.22.
